From publication PMC4285296, “A complex gene locus enables xyloglucan utilization in the model saprophyte Cellvibrio japonicus” (Molecular Microbiology, 2014)

Experiments:
CjBgl35A = target: T1, CjBgl35A (Cellvibrio japonicus, UniProt B3PBE0); assay: isothermal titration calorimetry; format: binding
T1 construct: gene bgl35A; native signal peptide (residues 1-36) excluded; recombinant in E. coli; pET-DEST42 construct with C-terminal tag, or modified pET28a construct with N-terminal His6 tag (crystals); model residues 37-575

CjAfc95A = target: T2, CjAfc95A (Cellvibrio japonicus, UniProt B3PBE3); assay: HPAEC-PAD, fucose release; format: biochemical; conditions: 25 °C; pH optimum 6.5; apparent value, substrate preparation was a two-component mixture of XLFG and XXFG
T2 construct: gene afc95A; full-length (no signal peptide predicted); pET-DEST42 construct with C-terminal tag; recombinant in E. coli BL21(DE3), IMAC purified
T2 sequence (B3PBE3 1-782): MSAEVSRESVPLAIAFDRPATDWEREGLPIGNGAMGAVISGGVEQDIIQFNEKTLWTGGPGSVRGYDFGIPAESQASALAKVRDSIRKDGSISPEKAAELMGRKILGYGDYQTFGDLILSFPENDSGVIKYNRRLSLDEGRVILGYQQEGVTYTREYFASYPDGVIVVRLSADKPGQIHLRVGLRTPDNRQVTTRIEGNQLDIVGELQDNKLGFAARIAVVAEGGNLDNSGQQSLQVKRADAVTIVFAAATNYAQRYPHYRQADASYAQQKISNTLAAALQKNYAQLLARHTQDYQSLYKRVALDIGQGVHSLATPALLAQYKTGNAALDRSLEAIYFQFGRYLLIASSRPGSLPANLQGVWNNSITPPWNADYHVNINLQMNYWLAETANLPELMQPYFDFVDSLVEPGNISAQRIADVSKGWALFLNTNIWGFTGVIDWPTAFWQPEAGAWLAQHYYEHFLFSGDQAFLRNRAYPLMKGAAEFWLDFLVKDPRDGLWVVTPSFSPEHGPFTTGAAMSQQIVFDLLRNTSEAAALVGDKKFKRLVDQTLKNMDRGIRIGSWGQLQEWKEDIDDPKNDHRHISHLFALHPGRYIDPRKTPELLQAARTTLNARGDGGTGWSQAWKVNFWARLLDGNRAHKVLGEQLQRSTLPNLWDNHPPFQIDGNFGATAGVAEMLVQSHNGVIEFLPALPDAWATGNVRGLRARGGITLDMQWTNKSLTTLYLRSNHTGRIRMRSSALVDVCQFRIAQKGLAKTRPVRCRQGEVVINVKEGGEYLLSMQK
Source text: HPAEC-PAD, fucose release on CjAfc95A

purified protein = substrate: O=[N+]([O-])c1ccc(O[C@@H]2O[C@H](CO)[C@H](O)[C@H](O)[C@H]2O)cc1; assay: purified protein; conditions: 25 °C, pH optimum 5.5 (acetate)
[1] = substrate: C[C@@H]1O[C@@H](Oc2ccc([N+](=O)[O-])cc2Cl)[C@@H](O)[C@H](O)[C@@H]1O; assay: continuous chromogenic assay, 2-chloro-4-nitrophenolate release; format: biochemical, Cellvibrio japonicus; conditions: 25 °C, pH optimum 6.5 (citrate)
Source text: continuous chromogenic assay, 2-chloro-4-nitrophenolate release on CjAfc95A

In the case of OC[C@H]1NC[C@H](O)[C@@H](O)[C@H]1O [1-deoxygalactonojirimycin, 1,5-Dideoxy-1,5-imino-D-galactitol], the Kd (CjBgl35A) is reported as 485 ± 42 nM.

Molecule C[C@@H]1O[C@@H](O[C@H]2[C@H](O[C@H]3[C@@H](OC[C@H]4O[C@@H](O[C@H]5[C@H](O)[C@@H](O)C(O)O[C@@H]5CO)[C@H](O)[C@@H](O)[C@@H]4O[C@@H]4O[C@H](CO[C@H]5OC[C@@H](O)[C@H](O)[C@H]5O[C@@H]5O[C@H](CO)[C@H](O)[C@H](O)[C@H]5O)[C@@H](O[C@@H]5O[C@H](CO[C@H]6OC[C@@H](O)[C@H](O)[C@H]6O)[C@@H](O)[C@H](O)[C@H]5O)[C@H](O)[C@H]4O)OC[C@@H](O)[C@@H]3O)O[C@H](CO)[C@H](O)[C@@H]2O)[C@@H](O)[C@H](O)[C@@H]1O (some centres unmarked) [XLFG] has a Km (CjAfc95A) of 210 ± 17 µM.

B1: CjBgl35A (Cellvibrio japonicus Ueda107) (protein)
chain: APLPELLSNNGKHALMVDGAPYIILGSQTNNSSNYPDALKDVWPSMEKMGANTLSIPVAWEQIEPVEGQFDFSFVDVLLKEARQRKVRLVLLWFATWKNNAPHYAPAWVKLDNARFPRVVKEDGDTLNSLSPLGQNTLAADKKAFVELMKYLAKRDKDHTVIMVQVQNEVGTYGAVRDYSPMAQAVFNAAVPDDLIQKLQLKPGTWSQVFGRDADEFFHAYQIARYCDEVTVAGKAIKNLPMYVNVALRNPFNPGLPGQYSSGGGTDNVLHIWKAAAPNIDLIAPDIYFRDYKTVSKVLELYTRPDNALFVAEIGNDQPFARYLFPTLGKGGIGFSPFGMDDTDYTNYPLGAKVYNDETIEQFAQVYRLVNPMMREWARLSYQGQVWGVAEPLDSTTETQKIWNAEATPEEKEQHKKDRASALTQQLDLGLWDAEVTYGRPMFWVTPPEGNTPAAGGALIAQLDDNEYLVTAYKARVEFKPSQELAGKKFMIERVEEGRFEKGKWVMERVWNGDQTDWGLNFTDRPHLLRVKMASYSVQ
B1 was tested, and the Km (purified protein) was 810 ± 50 µM, the kcat (purified protein) was 10.1 s⁻¹ and the kcat/Km (purified protein) was 12500 M⁻¹ s⁻¹.

B2: CjAfc95A (Cellvibrio japonicus Ueda107) (protein)
chain: T2 sequence (B3PBE3 1-782)
notes: full-length (no signal peptide predicted); pET-DEST42 construct with C-terminal tag; recombinant in E. coli BL21(DE3), IMAC purified
B2 was tested, and the Km [1] was 2100 ± 200 µM, the kcat [1] was 26.5 ± 1.1 s⁻¹ and the kcat/Km [1] was 12900 M⁻¹ s⁻¹.
